Experimental data published in patent US8669345 (Biogen, dated 2014).

Key:
[1] = target: T1, peptide DNAQLRVVDPTT (rat); assay: endoprotease Asp-N digest of p-617
T1 peptide: DNAQLRVVDPTT

[2] = target: T2, 15 kDa acid fragment of sNgR310 (aa 27-aa 122) (rat, UniProt Q99M75 27-122); assay: western blot
T2 construct: acid cleavage product of rat sNgR310
T2 chain: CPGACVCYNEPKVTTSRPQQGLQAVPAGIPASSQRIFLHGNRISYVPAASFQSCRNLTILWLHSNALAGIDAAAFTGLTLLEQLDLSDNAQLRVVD
Procedure: (§1) A recombinant fragment of the rat NgR1 that contains all 8 LRR domains and the N- and C-terminal caps (sNgR310) was treated with either acid or cyanogen bromide (CNBr) and separated the fragments by gel electrophoresis.

[3] = target: T3, 10 kDa CNBr fragment of sNgR310 (aa 241-aa 310) (rat, UniProt Q99M75 241-310); assay: western blot
T3 construct: CNBr cleavage product of rat sNgR310
T3 chain: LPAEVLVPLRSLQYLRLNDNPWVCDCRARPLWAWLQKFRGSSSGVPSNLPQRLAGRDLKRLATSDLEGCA
Procedure: as §1

[4] = target: T4, 35 kDa CNBr fragment of sNgR310 (aa 27-aa 229) (rat, UniProt Q99M75 27-229); assay: western blot
T4 construct: CNBr cleavage product of rat sNgR310; also called 33/35 kDa doublet
T4 chain: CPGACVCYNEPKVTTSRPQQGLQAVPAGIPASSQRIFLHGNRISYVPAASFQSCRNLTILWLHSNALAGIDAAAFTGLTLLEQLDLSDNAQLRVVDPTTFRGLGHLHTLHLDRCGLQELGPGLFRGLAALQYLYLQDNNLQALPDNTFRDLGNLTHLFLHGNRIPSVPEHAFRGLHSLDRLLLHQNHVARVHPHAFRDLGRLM
Procedure: as §1

[5] = target: T5, peptide LDALSDNAQLR (Scrambled Fragment #2); assay: MS of peptides bound by 7E11
T5 peptide: LDALSDNAQLR

[6] = target: T6, peptide LDLSDNAQLR (Wild-type Fragment) (rat); assay: MS of peptides bound by 7E11
T6 peptide: LDLSDNAQLR

[7] = target: T7, peptide LDLASDDAELR (Scrambled Fragment #1, deaminated); assay: MS of peptides bound by 7E11
T7 peptide: LDLASDDAELR

[8] = target: T8, peptide LDLSSDNAQLR (Scrambled Fragment #3); assay: MS of peptides bound by 7E11
T8 peptide: LDLSSDNAQLR

[9] = target: T9, peptide LDALSDDAELR (Scrambled Fragment #2, deaminated); assay: MS of peptides bound by 7E11
T9 peptide: LDALSDDAELR

[10] = target: T10, peptide LDLSDDAELR (deaminated wild-type fragment); assay: MS of peptides bound by 7E11
T10 construct: deamination at Asn115 and Gln117
T10 peptide: LDLSDDAELR

[11] = target: T11, peptide LDLASDNAQLR (Scrambled Fragment #1); assay: MS of peptides bound by 7E11
T11 peptide: LDLASDNAQLR

[12] = target: T12, Nogo receptor-1 (species and construct not stated); assay: surface plasmon resonance (BIAcore) per the text; NgR1 construct not stated
T12 sequence (Q9BZR6 27-447, species assumed, looked up): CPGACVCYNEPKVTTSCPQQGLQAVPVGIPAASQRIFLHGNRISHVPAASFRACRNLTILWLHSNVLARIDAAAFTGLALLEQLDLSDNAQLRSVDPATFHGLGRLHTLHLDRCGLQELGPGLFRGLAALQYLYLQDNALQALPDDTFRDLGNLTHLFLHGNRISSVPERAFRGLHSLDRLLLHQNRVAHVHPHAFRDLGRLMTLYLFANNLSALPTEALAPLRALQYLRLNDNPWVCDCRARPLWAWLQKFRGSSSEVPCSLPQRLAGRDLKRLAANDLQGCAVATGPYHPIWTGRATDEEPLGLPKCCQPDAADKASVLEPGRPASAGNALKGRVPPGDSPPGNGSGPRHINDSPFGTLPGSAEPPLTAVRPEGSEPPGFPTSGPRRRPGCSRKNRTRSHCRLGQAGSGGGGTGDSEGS

[13] = target: T13, tryptic peptide AAAFTGLTLLEQLDLSDNAQLR (rat); assay: tryptic digest of sNgR310, MS and sequence analysis
T13 construct: tryptic digest peptide of rat sNgR310
T13 peptide: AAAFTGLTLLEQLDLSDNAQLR

[14] = target: T14, peptide LDLSDNAALRVVDPTT (Q117A); assay: ELISA, peptides immobilized on MaxiSorp plate
T14 construct: also called Gln17Ala (so in the source)
T14 peptide: LDLSDNAALRVVDPTT

[15] = target: T15, peptide LDLSDNAQLHVVDPTT (R119H); assay: ELISA, peptides immobilized on MaxiSorp plate
T15 construct: also called Arg119His; R11911 (so in the source)
T15 peptide: LDLSDNAQLHVVDPTT

B1: monoclonal antibody 7E11 (antibody, V domains shown)
VH: VQLQESGAELVMPGASVKMSCKASGYTFTDYWMHWVKQRPGQGLEWIGAIDPSDSYSSYNQNFKGKATLTVDGSSSTAYMQLSSLTSEDSAVYYCARRITEAGAWFAYWGQGTTVT
VL: DVVMTQTPLSLPVSLGDQASISCRSSQSLVHSNGNTYLHWYLQKPGQSPKLLIYKVSNRFSGVPDRFSGSGSGTDFTLKISRVDAEDLGVYFCSQSTHVPFTFGGGTKLEIKR
notes: murine IgG1, kappa; immunogen: peptide of rat NgR1 residues 110-125; also called mAb 7E11; HB 7E11 (ATCC PTA-4587)
binding result [1]: binds | binding result [2]: binds | binding result [3]: no binding | binding result [4]: binds | binding result [5]: binds | binding result [6]: binds | binding result [7]: binds | binding result [8]: binds | binding result [9]: binds | binding result [10]: binds | binding result [11]: binds | Kd [12]: 100 nM | binding result [13]: binds | fold increase of EC50 against the original peptide [14]: 30 fold | fold increase of EC50 against the original peptide [15]: 25 fold
